This note sets out measurements from patent publication US11702475B2, “Cysteine engineered fibronectin type III domain binding molecules” (Janssen Biotech, Inc., priority 2013, dated 2023).

B1: V12C (conjugate)
chain: LPAPKNLVVSECTEDSARLSWDDPWAFYESFLIQYQESEKVGEAIVLTVPGSERSYDLTGLKPGTEYTVSIYGVHNVYKDTNMRGLPLSAIFTT
modifications: left off: small tags and cut ends
B2: E39C (conjugate)
chain: B1 chain with C12V, E39C
modifications: left off: small tags and cut ends
B3: E29C (conjugate)
chain: B1 chain with C12V, E29C
modifications: left off: small tags and cut ends
B4: T13C (conjugate)
chain: B1 chain with C12V, T13C
modifications: left off: small tags and cut ends
B5: V9C (conjugate)
chain: B1 chain with V9C, C12V
modifications: left off: small tags and cut ends
B6: R18C (conjugate)
chain: B1 chain with C12V, R18C
modifications: left off: small tags and cut ends
B7: L7C (conjugate)
chain: B1 chain with L7C, C12V
modifications: left off: small tags and cut ends
B8: G73C (conjugate)
chain: B1 chain with C12V, G73C
modifications: left off: small tags and cut ends
B9: V77C (conjugate)
chain: B1 chain with C12V, V77C
modifications: left off: small tags and cut ends
B10: S52C (conjugate)
chain: B1 chain with C12V, S52C
modifications: left off: small tags and cut ends
B11: N76C (conjugate)
chain: B1 chain with C12V, N76C
modifications: left off: small tags and cut ends
B12: F27C (conjugate)
chain: B1 chain with C12V, F27C
modifications: left off: small tags and cut ends
B13: N82C (conjugate)
chain: B1 chain with C12V, N82C
modifications: left off: small tags and cut ends
B14: Y78C (conjugate)
chain: B1 chain with C12V, Y78C
modifications: left off: small tags and cut ends
B15: P4C (conjugate)
chain: B1 chain with P4C, C12V
modifications: left off: small tags and cut ends
B16: G85C (conjugate)
chain: B1 chain with C12V, G85C
modifications: left off: small tags and cut ends
B17: H75C (conjugate)
chain: B1 chain with C12V, H75C
modifications: left off: small tags and cut ends
B18: S55C (conjugate)
chain: B1 chain with C12V, S55C
modifications: left off: small tags and cut ends
B19: T81C (conjugate)
chain: B1 chain with C12V, T81C
modifications: left off: small tags and cut ends
B20: E43C (conjugate)
chain: B1 chain with C12V, E43C
modifications: left off: small tags and cut ends
B21: L86C (conjugate)
chain: B1 chain with C12V, L86C
modifications: left off: small tags and cut ends
B22: D23C (conjugate)
chain: B1 chain with C12V, D23C
modifications: left off: small tags and cut ends
B23: V46C (conjugate)
chain: B1 chain with C12V, V46C
modifications: left off: small tags and cut ends
B24: R84C (conjugate)
chain: B1 chain with C12V, R84C
modifications: left off: small tags and cut ends
B25: A3C (conjugate)
chain: B1 chain with A3C, C12V
modifications: left off: small tags and cut ends
B26: D22C (conjugate)
chain: B1 chain with C12V, D22C
modifications: left off: small tags and cut ends
B27: P2C (conjugate)
chain: B1 chain with P2C, C12V
modifications: left off: small tags and cut ends
B28: K5C (conjugate)
chain: B1 chain with K5C, C12V
modifications: left off: small tags and cut ends
B29: K79C (conjugate)
chain: B1 chain with C12V, K79C
modifications: left off: small tags and cut ends
B30: P24C (conjugate)
chain: B1 chain with C12V, P24C
modifications: left off: small tags and cut ends
B31: D80C (conjugate)
chain: B1 chain with C12V, D80C
modifications: left off: small tags and cut ends
B32: A26C (conjugate)
chain: B1 chain with C12V, A26C
modifications: left off: small tags and cut ends
B33: P87C (conjugate)
chain: B1 chain with C12V, P87C
modifications: left off: small tags and cut ends
B34: F31C (conjugate)
chain: B1 chain with C12V, F31C
modifications: left off: small tags and cut ends
B35: M83C (conjugate)
chain: B1 chain with C12V, M83C
modifications: left off: small tags and cut ends
B36: Y28C (conjugate)
chain: B1 chain with C12V, Y28C
modifications: left off: small tags and cut ends
B37: W25C (conjugate)
chain: B1 chain with C12V, W25C
modifications: left off: small tags and cut ends

Changes are numbered by the printed parent chain.

The first data set in a line: Thermal stability of cysteine-NEM conjugates by DSC. In kind it is physicochemical. Conditions: DSC 25-100 °C, 1 °C per minute. As for the experimental part: The thermal stability of cysteine-NEM conjugates was assessed by differential scanning calorimetry (DSC). The only the conjugates tested were those determined to express at high levels, conjugate efficiently, and retain EGFR binding. Additionally, cysteine variants within the BC and FG loops were excluded. Stability data was generated by heating a 400 μL aliquot of the variant from 25° C. to 100° C. at a scan rate of 1° C. per minute in a VP-DSC instrument (MicroCal). A second identical scan was completed on the sample in order to assess the reversibility of thermal folding/unfolding. Data was fitted to a 2-state unfolding model in order to calculate the melting temperature (Table 10).
On the technique in general: In DSC, transitions show as peaks or steps in heat flow.
For the molecule B1, the “First Scan Tm” value was 58 °C.

For the molecule B2, the “First Scan Tm” value was determined as 67 °C.

B3: the “First Scan Tm” value stood at 63 °C.

In the case of B4, the “First Scan Tm” value is 63 °C.

For the molecule B5, the “First Scan Tm” value is 46 °C.

Turning to B6, the “First Scan Tm” value is 62 °C.

Staying with this data set, now noted: second identical scan.
In the case of B1, the “Second Scan Tm” value was found to be 58 °C.

Turning to B2, the “Second Scan Tm” value stood at 69 °C.

For the molecule B3, the “Second Scan Tm” value was determined as 66 °C.

Consider B4, for which the “Second Scan Tm” value was 63 °C.

In the case of B5, the “Second Scan Tm” value was found to be 46 °C.

B6: the “Second Scan Tm” value is 62 °C.

Another data set can be described thus: Analytical size exclusion chromatography (percent monomer). Format: physicochemical. Conditions: NEM-conjugated cysteine variants; SEC, Abs280 monomer region 5.5-6 minutes vs oligomer region 4-5.3 minutes. As for the experimental part:
Size exclusion chromatography was used to determine the aggregation state of the FN3 domains binding EGFR. Aliquots (10 μL) of each purified FN3 domain were injected onto a Superdex 75 5/150 column (GE Healthcare) at a flow rate of 0.3 mL/min in a mobile phase of PBS pH 7.4. Elution from the column was monitored by absorbance at 280 nm.
The percent monomer for each protein was determined by integrating the Abs280 signal and comparing the peak in the monomer region (5.5-6 minutes) to the peaks in the oligomer region (4-5.3 minutes).
Molecule B7 displayed a Percent monomer of 93%.

The molecule B1 registered a Percent monomer of 66%.

B8 yielded a Percent monomer of 66%.

For B9, the Percent monomer is given as 92%.

B10: the Percent monomer amounted to 100%.

For the molecule B11, the Percent monomer is 94%.

Molecule B12 had a Percent monomer of 97%.

B13 gave a Percent monomer of 100%.

B14: the Percent monomer came out at 90%.

For B2, the Percent monomer was determined as 100%.

Turning to B15, the Percent monomer was determined as 100%.

B16 showed a Percent monomer of 95%.

The molecule B17 showed a Percent monomer of 100%.

Take B18: the Percent monomer was 100%.

B19: the Percent monomer was determined as 86%.

In turn, B20 showed a Percent monomer of 100%.

Molecule B3 registered a Percent monomer of 85%.

In turn, B21 came in with a Percent monomer of 83%.

In turn, B4 displayed a Percent monomer of 82%.

Turning to B22, the Percent monomer amounted to 100%.

In the case of B23, the Percent monomer turned out to be 100%.

As to B24, the Percent monomer turned out to be 100%.

Regarding B25, the Percent monomer is 100%.

B26 yielded a Percent monomer of 85%.

Regarding B27, the Percent monomer is 86%.

In turn, B28 gave a Percent monomer of 100%.

B29 yielded a Percent monomer of 100%.

B30 came in with a Percent monomer of 88%.

On to B31, for which the Percent monomer is reported as 79%.

Molecule B32 returned a Percent monomer of 95%.

Molecule B33 gave a Percent monomer of 98%.

Regarding B5, the Percent monomer entry is reported as “double peak”.

B34: the Percent monomer worked out at 57%.

The molecule B35 had a Percent monomer of 91%.

As to B6, the Percent monomer was 93%.

B36 registered a Percent monomer of 92%.

The molecule B37 gave a Percent monomer of 76%.
